In test [1] the target is T1, recombinant hTACSTD2-Fc-His protein (Creative BioMart) (human, UniProt P09758 27-274, limits assumed).
T1 construct: bought protein; also called hTROP-2 (low-density antigen-coated ELISA); not shown: Fc part of the bought fusion protein; not described; His tag
T1 sequence: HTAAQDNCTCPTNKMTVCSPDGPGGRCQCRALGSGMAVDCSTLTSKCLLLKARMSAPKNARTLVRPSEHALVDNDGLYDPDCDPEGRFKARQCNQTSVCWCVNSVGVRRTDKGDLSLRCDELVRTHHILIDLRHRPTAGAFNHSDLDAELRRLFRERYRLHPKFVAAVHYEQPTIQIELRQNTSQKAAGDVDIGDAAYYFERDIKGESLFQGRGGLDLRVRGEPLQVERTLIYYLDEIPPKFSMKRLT
Nature of the test: low-density antigen-coated ELISA, plate coated with 0.1 µg/mL hTACSTD2-Fc-His, purified antibodies; HuK5-70 (humanized antibody); low-density ELISA, 0.1 µg/mL hTROP-2 coat.

The target in test [2] is T2, recombinant protein of the hTROP-2 extracellular region (human, UniProt P09758 27-263).
T2 construct: produced with baculovirus, purified on Ni Sepharose; also called hTROP-2 EC; hTROP-2-EC-His; not shown: C-terminal myc-His tag from pcDNA4/myc-His A
T2 sequence: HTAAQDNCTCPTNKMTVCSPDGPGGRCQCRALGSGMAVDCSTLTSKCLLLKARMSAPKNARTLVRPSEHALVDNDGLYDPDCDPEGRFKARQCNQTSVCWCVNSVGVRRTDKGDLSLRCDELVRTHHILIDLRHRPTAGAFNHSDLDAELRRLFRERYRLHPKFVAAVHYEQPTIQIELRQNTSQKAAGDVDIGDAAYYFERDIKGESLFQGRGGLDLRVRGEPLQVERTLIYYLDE
The test can be described thus: monovalent ELISA: antibody captured by anti-human IgG Fc, hTROP-2 EC titrated in solution, detected with anti-His. As for the experimental part:
Thereafter, coating was carried out at 4° C. overnight. Thereafter, the reaction product was washed with a washing buffer (PBS containing 0.05% Tween 20), and a blocking buffer (PBS containing 2% skim milk and 0.05% Tween 20) was then added thereto (200 μL/well) to block it (at room temperature for 1 hour). The resultant was washed with a washing buffer. […] The mixture was left at rest at room temperature for 1 hour, and the reaction product was then washed with a washing buffer. The recombinant protein of the hTROP-2 extracellular region described in Example 3 (hTROP-2 EC) was diluted with an ELISA buffer to prepare samples with a concentration range from 5 μg/mL to a series of three-fold dilutions (10 samples). The thus obtained sample was added in each amount of 50 μL/well to the plate. The mixture was left at rest at room temperature for 1 hour, and the reaction product was then washed with a washing buffer. […] The obtained mixture was left at rest at room temperature for 1 hour, and it was then washed with a washing buffer. […] The obtained mixture was left at rest at room temperature for 1 hour, and it was then washed with a washing buffer. […] Using Microplate reader Model 550 (BioRad), an absorbance at 450 nm was measured with an absorbance at 655 nm used as a reference.
A general note: ELISA stands for enzyme-linked immunosorbent assay.

Test [3] has as its target T2, recombinant protein of the hTROP-2 …. Nature of the test: antigen-coated ELISA, plate coated with 0.5 µg/ml hTROP-2 extracellular region. As to the method: (§1) Furthermore, antigen affinity was also examined by an ELISA method. ELISA was carried out using an ELISA plate which was coated with the recombinant protein of the hTROP-2 extracellular region as described in Example 3. Specifically, a 96-well plate (BD FALCON) was coated with a 50 μl/well recombinant protein of a hTROP-2 extracellular region that had been diluted with PBS to 0.5 μg/ml (at 4° C. overnight). Thereafter, the resultant was washed with a washing buffer (PBS containing 0.05% Tween 20), and a blocking buffer (PBS containing 2% skim milk and 0.05% Tween 20) was then added thereto (200 μl/well) to block it (at room temperature for 1 hour). The resultant was washed with a washing buffer. […] The obtained dilution samples were each added in an amount of 50 μl/well to the above-described ELISA plate (at room temperature for 2 hours). […] After the mixture had been washed with a washing buffer, a TMB (3,3′,5,5′-tetramethylbenzidine: SIGMA) substrate solution was added (50 μl/well) to the resultant to carry out a color reaction. Then, 1 M sulfuric acid (25 μl/well) was added to the reaction product to terminate the reaction. Using Microplate reader Model 550 (BioRad), an absorbance at 450 nm was measured with an absorbance at 655 nm used as a reference.

The target in test [4] is T1, recombinant hTACSTD2-Fc-His protein …. Nature of the test: low-density antigen-coated ELISA, plate coated with 0.1 µg/mL hTACSTD2-Fc-His. As for the experimental part: as §1, with “Specifically, a 96-well plate (BD FALCON) was coated with a 50 μl/well recombinant protein of a hTROP-2 extracellular region that had been diluted with PBS to 0.5 μg/ml (at 4° C. overnight).” left out

Test [5] shares this target. Nature of the test: low-density antigen-coated ELISA, plate coated with 0.1 µg/mL hTACSTD2-Fc-His, purified antibodies; HuK5-70-2 (R44G mutant); low-density ELISA, 0.1 µg/mL hTROP-2 coat.

What is called EC50 is the concentration giving half of the maximal effect.

B1: humanized K5-70 antibody (HuK5-70) (antibody, V domains shown)
VH: QVQLVQSGAEVKKPGASVKVSCKASGYTFTIYWINWVRQAPGQRLEWIGNIYPSDSYTNYNQKFKDKATLTVDTSASTAYMELSSLRSEDTAVYYCTRTSMADYWGQGTLVTVSS
VL: EIVLTQSPATLSLSPGERATLSCRASQSIGTSIHWYQQKPGQAPRLLIKYASESISGIPARFSGSGSGTDFTLTISSLEPEDFAVYYCQQSNSWPFTFGQGTKVEIK
notes: human IgG1 / human kappa constant regions from the vectors pFUSE-CHIg-hG1 and pFUSE2-CLIg-hk; also called HuK5-70 antibody
With B1, the EC50 in test [1] worked out at 0.0334 µg/mL; in test [2], 0.006 µg/mL; in test [3] it was 0.022 µg/mL; in test [4] it was 0.222 µg/mL. Besides, the “EC50 relative to that of the K5-70 antibody” value in test [4] was approximately 20 times.

B2: HuK5-70-2 antibody (HuK5-70 R44G mutant antibody) (antibody, V domains shown)
VH: QVQLVQSGAEVKKPGASVKVSCKASGYTFTIYWINWVRQAPGQGLEWIGNIYPSDSYTNYNQKFKDKATLTVDTSASTAYMELSSLRSEDTAVYYCTRTSMADYWGQGTLVTVSS
VL: EIVLTQSPATLSLSPGERATLSCRASQSIGTSIHWYQQKPGQAPRLLIKYASESISGIPARFSGSGSGTDFTLTISSLEPEDFAVYYCQQSNSWPFTFGQGTKVEIK
notes: also called HuK5-70 VH R44G; HuK5-70 VH2
B2: in test [5], the EC50 was 0.0114 µg/mL.

These data come from patent publication US20160333110A1 (CHIOME BIOSCIENCE, published 2016).
